Each block holds one binder with its values, some of them ahead of it.
Columns and labels:
[1] = target: T1, mouse EGFR-His (mouse); test: ELISA, 10 nM
T1 chain: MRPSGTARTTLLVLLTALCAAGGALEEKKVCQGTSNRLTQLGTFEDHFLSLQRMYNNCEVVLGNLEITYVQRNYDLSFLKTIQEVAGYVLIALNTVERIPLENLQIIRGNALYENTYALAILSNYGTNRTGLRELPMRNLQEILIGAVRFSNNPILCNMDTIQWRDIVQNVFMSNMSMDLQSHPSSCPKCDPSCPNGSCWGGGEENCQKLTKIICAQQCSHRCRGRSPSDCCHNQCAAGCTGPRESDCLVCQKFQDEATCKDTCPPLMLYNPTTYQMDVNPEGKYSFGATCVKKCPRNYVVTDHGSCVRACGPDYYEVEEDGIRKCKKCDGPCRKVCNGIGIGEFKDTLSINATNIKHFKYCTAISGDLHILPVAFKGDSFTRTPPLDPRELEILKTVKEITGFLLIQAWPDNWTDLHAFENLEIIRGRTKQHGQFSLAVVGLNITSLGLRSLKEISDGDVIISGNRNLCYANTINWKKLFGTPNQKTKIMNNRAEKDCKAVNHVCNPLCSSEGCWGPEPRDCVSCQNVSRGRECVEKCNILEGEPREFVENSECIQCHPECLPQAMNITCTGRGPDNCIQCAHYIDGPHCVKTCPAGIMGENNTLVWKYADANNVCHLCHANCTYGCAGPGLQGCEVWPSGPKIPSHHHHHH

[2] = target: MET-huFc (human); test: ELISA
[3] = target: EGFR-moFc S442R (human); test: ELISA

binding result [1]: no binding
B1: Panitumumab (antibody, V domains shown)
VH: QVQLQESGPGLVKPSETLSLTCTVSGGSVSSGDYYWTWIRQSPGKGLEWIGHIYYSGNTNYNPSLKSRLTISIDTSKTQFSLKLSSVTAADTAIYYCVRDRVTGAFDIWGQGTMVTVSS
VL: DIQMTQSPSSLSASVGDRVTITCQASQDISNYLNWYQQKPGKAPKLLIYDASNLETGVPSRFSGSGSGTDFTFTISSLQPEDIATYFCQHFDHLPLAFGGGTKVEIKR

EC50 [2]: 4.1 nM
B2: eIg 1+1 H10x5D5 MET arm (antibody, V domains shown)
VH: EVQLVESGGGLVQPGGSLRLSCAASGYTFTSYWLHWVRQAPGKGLEWVGMIDPSNSDTRFNPNFKDRFTISADTSKNTAYLQMNSLRAEDTAVYYCATYRSYVTPLDYWGQGTLVTVSS
VL: DIQMTQSPSSLSASVGDRVTITCKSSQSLLYTSSQKNYLAWYQQKPGKAPKLLIYWASTRESGVPSRFSGSGSGTDFTLTISSLQPEDFATYYCQQYYAYPWTFGQGTKVEIKR

binding result [3]: no binding
B3: Necitumumab (antibody, V domains shown)
VH: QVQLQESGPGLVKPSQTLSLTCTVSGGSISSGDYYWSWIRQPPGKGLEWIGYIYYSGSTDYNPSLKSRVTMSVDTSKNQFSLKVNSVTAADTAVYYCARVSIFGVGTFDYWGQGTLVTVSS
VL: EIVMTQSPATLSLSPGERATLSCRASQSVSSYLAWYQQKPGQAPRLLIYDASNRATGIPARFSGSGSGTDFTLTISSLEPEDFAVYYCHQYGSTPLTFGGGTKAEIKR

From patent US20260297200 (published 2026)
